Laboratory results as given in patent US20200216522A1 (DENALI THERAPEUTICS, published 2020).
Changes are numbered by the printed parent chain. * marks the point of attachment. Biotin = O=C1N[C@H]2[C@H](CS[C@H]2CCCCC(=O)*)N1

T1: Tau 251-270 peptide, unphosphorylated (human, N-terminal biotin; C-terminal amide)
T1 peptide: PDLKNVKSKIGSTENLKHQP

T2: Tau 346-360 peptide, unphosphorylated (human, SMILES …)
T2 peptide: Biotin-FKDRVQSKIGSLDNI-NH2

T3: Peptide_035 (human)
T3 peptide: IPAKTPPAPKTPPSS

T4: Peptide_051 (human)
T4 peptide: PDLKNVKSKIGSTEN

T5: Peptide_026 (human)
T5 peptide: RMVSKSKDGTGSDDK

T6: Peptide_075 (human)
T6 peptide: IETHKLTFRENAKAK

T7: Peptide_030 (human)
T7 peptide: DGKTKIATPRGAAPP

T8: Peptide_034 (human)
T8 peptide: ANATRIPAKTPPAPK

T9: Peptide_052 (human)
T9 peptide: VKSKIGSTENLKHQP

T10: Peptide_033 (human)
T10 peptide: GQKGQANATRIPAKT

T11: Peptide_017 (human)
T11 peptide: DEGAPGKQAAAQPHT

T12: Peptide_013 (human)
T12 peptide: SETSDAKSTPTAEDV

T13: Peptide_038 (human)
T13 peptide: GEPPKSGDRSGYSSP

T14: Peptide_069 (human)
T14 peptide: SEKLDFKDRVQSKIG

T15: Peptide_031 (human)
T15 peptide: IATPRGAAPPGQKGQ

T16: Peptide_081 (human)
T16 peptide: GDTSPRHLSNVSSTG

T17: Peptide_083 (human)
T17 peptide: VSSTGSIDMVDSPQL

T18: Peptide_076 (human)
T18 peptide: LTFRENAKAKTDHGA

B1: chimeric IgG clone 1A5 (antibody, V domains shown)
VH: EVQLQQSGAELVRPGASVKLSCTASGFNIKDSLIHWVKQRPEQGLEWIGWIDPEDGETKYAPKFQDKATKTADTSSNTAYLQLSSLTSEDTAIYYCASGEWDYWGQGTSVTVSS
VL: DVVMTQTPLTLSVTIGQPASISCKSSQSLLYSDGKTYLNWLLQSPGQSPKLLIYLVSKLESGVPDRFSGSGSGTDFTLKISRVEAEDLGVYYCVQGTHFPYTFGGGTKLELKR
notes: mouse-human chimeric IgG from HEK293
B2: chimeric IgG clone 1A1 (antibody, V domains shown)
VH: EVQLQQSGAELVRPGASVRLSCTASGFNIKDSLMHWLKQRPEQGLEWIGWIDPEDGETKYAPKFQDKATITADTSSNTAYLQLSSLTSEDTAIYYCTRRDWEGPWGQGTLVTVSA
VL: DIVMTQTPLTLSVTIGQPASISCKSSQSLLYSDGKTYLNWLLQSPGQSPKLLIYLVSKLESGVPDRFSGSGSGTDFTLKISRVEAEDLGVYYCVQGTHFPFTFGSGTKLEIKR
notes: mouse-human chimeric IgG from HEK293; also called anti-Tau 1A1; anti-Tau^1A1
B3: chimeric IgG clone 1G7 (antibody, V domains shown)
VH: B2 VH with L11V, R19K, A24T, E89G, T97A
VL: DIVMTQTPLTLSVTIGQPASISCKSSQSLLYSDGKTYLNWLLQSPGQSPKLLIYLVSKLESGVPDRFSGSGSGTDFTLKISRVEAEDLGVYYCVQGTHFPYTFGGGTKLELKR
notes: as for B1
B4: murine anti-Tau hybridoma antibody 17G2.A1 (antibody, V domains shown)
VH: QVQLQQPGAELVGPGSSVKLSCKASGYTFINYWIDWMKQSPGQGLEWIGNIYPSDSESHYNQKFTDKATLTVDISSSTAYLQLSSLTSEDSAVYYCALYSKGYWGQGTSVTVSS
VL: DVLMTQTPLSLPVTLGDQASISCRSSQNIVHTNGNTYLEWYLQKPGQSPKLLIYKLSSRFSGVPDRFSGSGSGTDFTLKISRVEAEDLGVYYCFQGSHLPFTFGGGTKLEIKR
notes: mouse IgG from hybridoma; also called anti-Tau 17G2.A1

Biological target: T1, Tau 251-270 peptide, unphosphorylated
Experiment: ELISA on biotinylated peptide
Description: (§1) Peptides corresponding to original binding sites on the microarray were synthesized and included all permutations of phospho-serine epitopes. Peptides were synthesized with a biotinylated N-terminus and C-terminal amide. Peptides were purified and confirmed by mass spectrometry. Peptides were then bound to streptavidin-coated plates in half serial dilutions from 250 ng/well of each peptide. Antibody binding was tested at 1 μg/mL in 5% BSA TBST, followed by washing and detection with goat anti-human HRP (as described above in the “Chimeric IgG ELISA” section).

| Binder | binding result |
| --- | --- |
| B1 | binds |
| B2 | binds |
| B3 | binds |

Biological target: T2, Tau 346-360 peptide, unphosphorylated
Experiment: ELISA on biotinylated peptide
Description: as §1

| Binder | binding result |
| --- | --- |
| B1 | binds |
| B2 | binds |
| B3 | binds |

biological target: T19, full-length human Tau (Tau441; 2N4R), recombinant (human, UniProt P10636 1-758); experiment: Octet binning on biotin-r-Tau; row antibody Ab107 (anti-BACE1 control)
T19 construct: made in E. coli, His6-Smt3 tag removed; biotinylated through amines for Octet and phage work; also called r-Tau; recombinant Tau
T19 sequence (P10636 other isoform, or with tags, fused parts or gaps limits assumed): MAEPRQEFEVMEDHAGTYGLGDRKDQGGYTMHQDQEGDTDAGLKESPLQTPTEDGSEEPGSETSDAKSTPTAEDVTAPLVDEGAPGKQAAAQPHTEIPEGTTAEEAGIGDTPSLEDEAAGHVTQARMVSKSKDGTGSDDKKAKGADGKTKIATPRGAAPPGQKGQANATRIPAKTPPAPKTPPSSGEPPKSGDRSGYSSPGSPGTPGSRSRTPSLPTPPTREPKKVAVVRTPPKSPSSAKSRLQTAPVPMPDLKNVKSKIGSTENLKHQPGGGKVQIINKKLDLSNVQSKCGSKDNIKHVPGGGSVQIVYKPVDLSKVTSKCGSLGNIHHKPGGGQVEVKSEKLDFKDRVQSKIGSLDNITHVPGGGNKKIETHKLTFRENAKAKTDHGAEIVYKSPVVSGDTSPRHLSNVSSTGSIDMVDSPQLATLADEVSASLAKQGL
Description: (§2) Epitope binning assays were performed using a FortéBio® Octet® RED384 instrument using FortéBio® Streptavidin biosensors. Biotinylated recombinant Tau was diluted to a concentration of 2 μg/mL in kinetic buffer (obtained from FortéBio®) and captured onto individual biosensors for 1 minute. A baseline was then established for 1 minute in kinetic buffer. The loaded biosensors were dipped into 10 μg/mL of the first chimeric IgG antibody until signal saturation, followed by dipping into 1 μg/mL of a second antibody. The binding for the second antibody was normalized to its total binding in the absence of the first antibody.

| Binder | normalized binding of second antibody |
| --- | --- |
| B1 | 1 |
| B3 | 1 |

biological target: T19, full-length human Tau (Tau441; 2N4R), …; experiment: Octet binning on biotin-r-Tau; competitor 1D10
Description: as §2

| Binder | normalized binding of second antibody |
| --- | --- |
| B1 | -0.35 |
| B3 | -0.12 |

biological target: T19, full-length human Tau (Tau441; 2N4R), …; experiment: Octet binning on biotin-r-Tau; competitor 1A5
Description: as §2

| Binder | normalized binding of second antibody |
| --- | --- |
| B1 | -0.13 |
| B3 | -0.04 |

biological target: T19, full-length human Tau (Tau441; 2N4R), …; experiment: Octet binning on biotin-r-Tau; competitor 1C7
Description: as §2

| Binder | normalized binding of second antibody |
| --- | --- |
| B1 | 0.7 |
| B3 | 0.85 |

biological target: T19, full-length human Tau (Tau441; 2N4R), …; experiment: Octet binning on biotin-r-Tau; competitor 1G7
Description: as §2

| Binder | normalized binding of second antibody |
| --- | --- |
| B1 | -0.1 |
| B3 | -0.03 |

Biological target: T3, Peptide_035
Experiment: peptide array
Description: (§3) Chimeric IgG antibodies were diluted to a concentration of 5 μg/mL in 3% bovine serum albumin in Tris-buffered saline (10 mM Tris, pH 7.5, 150 mM NaCl) supplemented with 0.05% Tween®20 (3% BSA-TBST). Diluted antibodies were allowed to bind to peptides printed onto slides for 2 hours at room temperature as described in the PepStar™ user manual (JPT Technologies). Following extensive washing (5×5 minutes with TBST), slides were incubated with secondary antibodies goat anti-human IgG, Alexa Fluor 568 conjugate, 1 μg/mL in 3% BSA-TBST) for 1 hour at room temperature. After extensive washing, (5×5 minutes with TBST, then 5×5 minutes with ultrapure water), slides were dried overnight and imaged using an Opera Phenix™ system in the 568 nm channel. Images were aligned to peptide array definition files using Galviewer software obtained from JPT Technologies and ImageJ software with control human IgG serving as landmarks.
(§4) Full-length human Tau (encoded by the microtubule-associated protein Tau isoform 2 gene (MAPT), amino acid sequence NCBI Reference Sequence No. NP_005901.2, SEQ ID NO: 1, variant designation “2N4R”) was divided into 15 amino acid peptides, offset by 5 amino acids (overlapping by 10 amino acids). Peptides were synthesized and covalently attached to silica slides in triplicate with a spot size of 0.5 mm (obtained from JPT Technologies, Berlin, Germany). Antibodies muIgG were diluted to a concentration of 30 μg/mL in 3% bovine serum albumin in Tris-buffered saline (10 mM Tris, pH 7.5, 150 mM NaCl) supplemented with 0.05% Tween® 20 (3% BSA-TBST). Diluted antibodies were allowed to bind to peptides printed onto slides for 2 hours at room temperature as described in the Pepstar™ user manual (JPT Technologies). Following extensive washing (5×5 min TBST), slides were incubated with secondary antibodies (donkey anti-mouse IgG, Alexafluor 647 conjugate, 5 μg/mL in 3% BSA-TBST) for 1 hour at room temperature. After extensive washing, (5×5 minutes TBST, 5×5 minutes ultrapure water), slides were dried under a stream of nitrogen and imaged on the Opera Phenix in the 647 nm channel. Images were aligned to peptide array definition file using Galviewer software obtained from JPT Technologies and ImageJ software with control mouse IgG serving as landmarks.

| Binder | binding result |
| --- | --- |
| B1 | no binding (tested: 5 ug/mL) |
| B4 | no binding (tested: 30 ug/mL) |
| B2 | no binding (tested: 5 ug/mL) |
| B3 | no binding (tested: 5 ug/mL) |

Biological target: T4, Peptide_051
Experiment: peptide array
Description: as §3, §4

| Binder | binding result |
| --- | --- |
| B1 | binds |
| B4 | no binding (tested: 30 ug/mL) |
| B2 | binds |
| B3 | binds |

Biological target: T5, Peptide_026
Experiment: peptide array
Description: as §3, §4

| Binder | binding result |
| --- | --- |
| B1 | no binding (tested: 5 ug/mL) |
| B4 | no binding (tested: 30 ug/mL) |
| B2 | no binding (tested: 5 ug/mL) |
| B3 | no binding (tested: 5 ug/mL) |

Biological target: T6, Peptide_075
Experiment: peptide array
Description: as §3, §4

| Binder | binding result |
| --- | --- |
| B1 | no binding (tested: 5 ug/mL) |
| B4 | no binding (tested: 30 ug/mL) |
| B2 | no binding (tested: 5 ug/mL) |
| B3 | no binding (tested: 5 ug/mL) |

Biological target: T7, Peptide_030
Experiment: peptide array
Description: as §3, §4

| Binder | binding result |
| --- | --- |
| B1 | no binding (tested: 5 ug/mL) |
| B4 | no binding (tested: 30 ug/mL) |
| B2 | no binding (tested: 5 ug/mL) |
| B3 | no binding (tested: 5 ug/mL) |

Biological target: T8, Peptide_034
Experiment: peptide array
Description: as §3, §4

| Binder | binding result |
| --- | --- |
| B1 | no binding (tested: 5 ug/mL) |
| B4 | no binding (tested: 30 ug/mL) |
| B2 | no binding (tested: 5 ug/mL) |
| B3 | no binding (tested: 5 ug/mL) |

Biological target: T9, Peptide_052
Experiment: peptide array
Description: as §3, §4

| Binder | binding result |
| --- | --- |
| B1 | binds |
| B4 | no binding (tested: 30 ug/mL) |
| B2 | binds |
| B3 | binds |

Biological target: T10, Peptide_033
Experiment: peptide array
Description: as §3, §4

| Binder | binding result |
| --- | --- |
| B1 | no binding (tested: 5 ug/mL) |
| B4 | no binding (tested: 30 ug/mL) |
| B2 | no binding (tested: 5 ug/mL) |
| B3 | no binding (tested: 5 ug/mL) |

Biological target: T11, Peptide_017
Experiment: peptide array
Description: as §3, §4

| Binder | binding result |
| --- | --- |
| B1 | no binding (tested: 5 ug/mL) |
| B4 | no binding (tested: 30 ug/mL) |
| B2 | no binding (tested: 5 ug/mL) |
| B3 | no binding (tested: 5 ug/mL) |

Biological target: T12, Peptide_013
Experiment: peptide array
Description: as §3, §4

| Binder | binding result |
| --- | --- |
| B1 | no binding (tested: 5 ug/mL) |
| B4 | no binding (tested: 30 ug/mL) |
| B2 | no binding (tested: 5 ug/mL) |
| B3 | no binding (tested: 5 ug/mL) |

Biological target: T13, Peptide_038
Experiment: peptide array
Description: as §3, §4

| Binder | binding result |
| --- | --- |
| B1 | no binding (tested: 5 ug/mL) |
| B4 | binds |
| B2 | no binding (tested: 5 ug/mL) |
| B3 | no binding (tested: 5 ug/mL) |

Biological target: T14, Peptide_069
Experiment: peptide array
Description: as §3, §4

| Binder | binding result |
| --- | --- |
| B1 | no binding (tested: 5 ug/mL) |
| B4 | no binding (tested: 30 ug/mL) |
| B2 | no binding (tested: 5 ug/mL) |
| B3 | no binding (tested: 5 ug/mL) |

Biological target: T15, Peptide_031
Experiment: peptide array
Description: as §3, §4

| Binder | binding result |
| --- | --- |
| B1 | no binding (tested: 5 ug/mL) |
| B4 | no binding (tested: 30 ug/mL) |
| B2 | no binding (tested: 5 ug/mL) |
| B3 | no binding (tested: 5 ug/mL) |

Biological target: T16, Peptide_081
Experiment: peptide array
Description: as §3, §4

| Binder | binding result |
| --- | --- |
| B1 | no binding (tested: 5 ug/mL) |
| B4 | no binding (tested: 30 ug/mL) |
| B2 | no binding (tested: 5 ug/mL) |
| B3 | no binding (tested: 5 ug/mL) |

Biological target: T17, Peptide_083
Experiment: peptide array
Description: as §3, §4

| Binder | binding result |
| --- | --- |
| B1 | no binding (tested: 5 ug/mL) |
| B4 | no binding (tested: 30 ug/mL) |
| B2 | no binding (tested: 5 ug/mL) |
| B3 | no binding (tested: 5 ug/mL) |

Biological target: T18, Peptide_076
Experiment: peptide array
Description: as §3, §4

| Binder | binding result |
| --- | --- |
| B1 | no binding (tested: 5 ug/mL) |
| B4 | no binding (tested: 30 ug/mL) |
| B2 | no binding (tested: 5 ug/mL) |
| B3 | no binding (tested: 5 ug/mL) |
